Experimental findings from patent US20220267421A1 (INVOX PHARMA, published 2022) are described below.

For assay [1], the target named is T1, human MSLN-His-Avi (human, UniProt Q13421 296-598, single biotin (BirA) in the biotinylated form).
T1 construct: Monomeric, made in HEK293-6E; Used both immobilised and in solution; also called hMSLN-His-Avi; biotinylated hMSLN-His-Avi
In words: ELISA, hMSLN-His-Avi coated at 1 ug/ml.

For assay [2], the target named is T1, human MSLN-His-Avi. In words: SPR (Biacore), hMSLN-His-Avi immobilised at 100 RU, mAb injected. As to the method:
Human MSLN-His-Avi was immobilised on flow cell 2 on a CM5 Series S BIAcore sensor chip (GE Healthcare, BR100530) using an amine coupling kit (GE Healthcare, BR10050) to approximately 200 response units (RU). Flow cell 1 was left blank for subtraction. HEK293-6E supernatants or purified proteins were adjusted with HBS-EP+(GE Healthcare) to approximately 50 nM anti-MSLN mAb per sample. Samples were injected over flow cell 1 and 2 for 2.5 min at 30 μl/min and then allowed to dissociate in HBS-EP buffer for 2.5 min. Regeneration was achieved by injecting 10 mM glycine pH 1.5 (GE Healthcare, BR100354) for 30 seconds at a rate of 30 μl/min. Subtracted data (flow cell 2−flow cell 1) were analysed using BIAevaluation 3.2 Software (GE Healthcare).
For each bin described in 2.1.3, the binding kinetics were determined using the same method as described in section 2.1.2, except that human or cyno MSLN-His-Avi was immobilised at 50 or 100 RU. Clones were tested at a concentration range of 81 nM to 0.33 nM in 3-fold dilutions.
On the technique in general: Surface plasmon resonance follows binding to a sensor surface in real time, without labels.

Assay [3] addresses T2, cell surface human mesothelin (MSLN) (human, UniProt Q13421 296-598).
T2 construct: whole, on cells; also called cell surface MSLN
In words: flow cytometry, NCI-H226 cells (n = 3). As to the method: Briefly, NCI-H226 cells (ATCC CRL-5826) were harvested from T175 cell culture flasks using StemPro Accutase (Gibco, A11105-01). Cells were centrifuged at 1200 rpm for 3 min and resuspended in ice cold FACS buffer made up of DPBS (Life Technologies, 14190169) and 1% BSA (Sigma-Aldrich, A7906) at 2×10⁶ cells/ml and 50 μl per well was seeded in a 96-well V-bottom plate (Costar, 3894). All mAbs tested were diluted in FACS buffer in 120 μl at a concentration range of 0.01-200 nM (4-fold dilutions). The NCI-H226 cells were then centrifuged, supernatant removed and cells resuspended in 100 μl of each mAb dilution and incubated at 4° C. for 45 min. Cells were washed twice by centrifugation with 150 μl FACS buffer, resuspended in 100 μl containing goat anti-human IgG (γ-chain specific) F(ab′)2 fragment-R-Phycoerythrin antibody (Sigma, P8047) diluted 1:1000 in FACS buffer and incubated at 4° C. for 45 min. The cells were washed once with 150 μl FACS buffer and then with 150 μl DPBS, resuspended in 150 μl DPBS containing DAPI (Biotium, 40043) at 1:10.000 and read on the BDCantoll or iQue (Intellicyt). Data was analysed using FlowJo v10 to determine the signal geometric mean for PE for live cells in each well.
For orientation: Flow cytometry measures light scatter and fluorescence of single cells or particles in a stream.

For assay [4], the target named is T3, human CEACAM-5-His-Fc (Sino Biological, 1077-H03H) (human, UniProt P06731 35-685).
T3 construct: not shown: His tag and Fc
T3 sequence (looked up): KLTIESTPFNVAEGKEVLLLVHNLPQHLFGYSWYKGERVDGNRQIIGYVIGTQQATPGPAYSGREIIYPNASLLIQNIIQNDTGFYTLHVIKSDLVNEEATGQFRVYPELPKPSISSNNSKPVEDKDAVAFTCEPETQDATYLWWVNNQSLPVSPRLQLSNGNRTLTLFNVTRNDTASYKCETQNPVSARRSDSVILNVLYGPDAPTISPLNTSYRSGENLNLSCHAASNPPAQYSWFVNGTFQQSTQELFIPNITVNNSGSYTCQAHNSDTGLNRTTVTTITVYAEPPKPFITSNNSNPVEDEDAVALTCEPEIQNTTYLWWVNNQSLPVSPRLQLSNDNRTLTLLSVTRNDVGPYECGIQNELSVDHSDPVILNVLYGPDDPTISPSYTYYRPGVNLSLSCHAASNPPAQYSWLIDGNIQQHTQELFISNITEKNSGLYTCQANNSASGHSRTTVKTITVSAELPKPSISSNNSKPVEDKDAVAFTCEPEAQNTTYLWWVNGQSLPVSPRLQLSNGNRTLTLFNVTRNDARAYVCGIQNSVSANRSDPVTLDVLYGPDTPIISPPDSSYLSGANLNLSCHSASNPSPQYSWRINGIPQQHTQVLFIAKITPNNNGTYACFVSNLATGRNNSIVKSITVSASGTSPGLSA
In words: ELISA, antigen coated at 1 ug/ml. As to the method:
(§1) A similar protocol was used as described in section 1.2.1 in which maxisorp plates were coated with 1 μg/ml of recombinant human MSLN-His-Avi, human CEACAM-5-His-Fc (Sino Biological, 1077-H03H), human E-Cadherin (R&D systems, 8505-EC), human Thrombomodulin (Peprotech, 100-58) or human EpCAM-hFc (in-house production). Binding of the anti-MSLN mAbs, tested at a concentration range of 0.02 to 1000 nM (3-fold dilutions) was detected using anti-human Fab-HRP (Sigma, A0293). Positive controls for the respective molecules included human EpCAM antibody (clone 2G8 from patent no. U.S. Pat. No. 8,236,308 B2) CEACAM-5 antibody (clone hMN15 from patent no. U.S. Pat. No. 8,771,690 B2), human E-Cadherin antibody, mouse IgG2b clone 180215 (R&D systems, MAB1838), human Thrombomodulin antibody, mouse IgG1, clone 501733 (R&D systems, MAB3947). The latter two were detected using goat anti mouse Fc-HRP (Sigma, A9309) as secondary mAb.
(ELISA stands for enzyme-linked immunosorbent assay.)

The target in assay [5] is T4, human EpCAM-hFc (in-house production) (human, UniProt P16422 24-265, limits assumed).
T4 construct: not shown: human Fc
T4 sequence (looked up): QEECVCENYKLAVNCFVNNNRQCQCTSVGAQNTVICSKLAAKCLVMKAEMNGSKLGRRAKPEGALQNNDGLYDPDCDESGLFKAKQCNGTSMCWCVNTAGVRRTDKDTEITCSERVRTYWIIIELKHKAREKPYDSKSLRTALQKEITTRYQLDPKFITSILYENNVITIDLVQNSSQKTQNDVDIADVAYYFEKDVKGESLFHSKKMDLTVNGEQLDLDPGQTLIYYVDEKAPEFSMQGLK
In words: ELISA, antigen coated at 1 ug/ml. Here is the method:
as §1

T1 sequence (Q13421 other isoform, or with tags, fused parts or gaps): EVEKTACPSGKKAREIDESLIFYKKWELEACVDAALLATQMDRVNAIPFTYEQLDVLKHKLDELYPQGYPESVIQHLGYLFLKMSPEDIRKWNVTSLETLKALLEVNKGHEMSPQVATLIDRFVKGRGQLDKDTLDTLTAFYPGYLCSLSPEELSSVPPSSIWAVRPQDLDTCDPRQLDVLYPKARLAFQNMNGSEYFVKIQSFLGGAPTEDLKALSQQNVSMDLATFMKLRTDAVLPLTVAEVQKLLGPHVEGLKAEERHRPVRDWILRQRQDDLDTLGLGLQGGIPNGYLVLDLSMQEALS
T2 sequence (Q13421 other isoform, or with tags, fused parts or gaps limits assumed): as the sequence (Q13421 other isoform, or with tags, fused parts or gaps) above

B1: G1-AA/FS28-026 (antibody, human IgG1, kappa, L234A L235A, V domains shown)
VH: EVQLLESGGGLVQPGGSLRLSCAASGFTFSNYAMTWVRQAPGKGLEWVSSITPYYSKTDYADSVKGRFTISRDNSKNTLYLQMNSLRAEDTAVYYCARNWYRFDYWGQGTLVTVSS
VL: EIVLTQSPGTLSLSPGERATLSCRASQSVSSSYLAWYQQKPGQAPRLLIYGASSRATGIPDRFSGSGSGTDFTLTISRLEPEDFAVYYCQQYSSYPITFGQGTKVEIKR
notes: IgG1 LALA; also called FS28-026 mAb (in G1-AA format)
For orientation: EC50 means the concentration needed to bring the measured effect to its halfway point. Low values mean higher potency in that assay, high ones lower potency in that assay. As a reminder, the Kd is the free concentration of one partner at which half of the binding sites on the other are occupied at equilibrium, for simple one-to-one binding. Lower therefore signals a tighter complex. On to B1, for which the EC50 with human MSLN-His-Avi [1] is approximately 0.5 nM; in assay [3], 1.08 nM. For the same molecule, in the assay with human MSLN-His-Avi [1], the maximum binding signal was determined as 3. For the same molecule, in the assay with human MSLN-His-Avi [2], the Kd is 0.12 nM. The “Emax (MFI signal)” value in assay [3] came to 13600 MFI. Further, the binding result in assay [4] and in assay [5] was “no binding (tested: 1000 nM)” each time.

B2: G1-AA/FS28-091 (antibody, human IgG1, kappa, L234A L235A, V domains shown)
VH: EVQLLESGGGLVQPGGSLRLSCAASGFTFTNYAMSWVRQAPGKGLEWVSSIKPYDGNTYYADSVKGRFTISRDNSKNTLYLQMNSLRAEDTAVYYCARNRWVFDYWGQGTLVTVSS
VL: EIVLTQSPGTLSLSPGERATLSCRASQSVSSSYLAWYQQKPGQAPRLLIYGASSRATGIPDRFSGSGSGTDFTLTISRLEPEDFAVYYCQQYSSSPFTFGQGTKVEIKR
notes: IgG1 LALA; also called FS28-091 mAb (in G1-AA format)
In the case of B2, in the assay with human MSLN-His-Avi [1], the EC50 is approximately 0.5 nM and the maximum binding signal was 3. Also, binding with human MSLN-His-Avi [2] was put at a Kd of 0.76 nM. Moreover, in assay [3], the midpoint of the response, the EC50, lay at 1.22 nM and the “Emax (MFI signal)” value was found to be 11900 MFI. For the same molecule, in assay [4], the binding result is “no binding (tested: 1000 nM)”. Besides, the binding result in assay [5] was “no binding (tested: 1000 nM)”.

B3: G1-AA/FS28-024 (antibody, human IgG1, kappa, L234A L235A, V domains shown)
VH: EVQLLESGGGLVQPGGSLRLSCAASGFTLSYSSMSWVRQAPGKGLEWVSFITPSTGYTHYADSVKGRFTISRDNSKNTLYLQMNSLRAEDTAVYYCARRALTFDYWGQGTLVTVSS
VL: EIVLTQSPGTLSLSPGERATLSCRASQSVSSSYLAWYQQKPGQAPRLLIYGASSRATGIPDRFSGSGSGTDFTLTISRLEPEDFAVYYCQQASSYPLTFGQGTKVEIKR
notes: Complete human IgG1 with LALA mutation; also called FS28-024 mAb (in G1-AA format)
With B3, in the assay with human MSLN-His-Avi [1], the concentration giving a half-maximal response (EC50) is approximately 0.5 nM and the maximum binding signal was found to be 3. In addition, in the assay with human MSLN-His-Avi [2], the Kd turned out to be 0.23 nM. For the same molecule, in assay [3], the EC50 worked out at 0.62 nM and the “Emax (MFI signal)” value is 14600 MFI. In addition, the binding result in assay [4] is listed as “no binding (tested: 1000 nM)”. Also, the binding result in assay [5] is recorded as “no binding (tested: 1000 nM)”.
